The values that follow come from paper PMC6351565.

Where a chain is given by its changes, count along the chain named. Names and notes keep the numbering of the source.

The target of the assay is T1, endogenous 14-3-3 (all isoforms included), P27348.
T1 chain: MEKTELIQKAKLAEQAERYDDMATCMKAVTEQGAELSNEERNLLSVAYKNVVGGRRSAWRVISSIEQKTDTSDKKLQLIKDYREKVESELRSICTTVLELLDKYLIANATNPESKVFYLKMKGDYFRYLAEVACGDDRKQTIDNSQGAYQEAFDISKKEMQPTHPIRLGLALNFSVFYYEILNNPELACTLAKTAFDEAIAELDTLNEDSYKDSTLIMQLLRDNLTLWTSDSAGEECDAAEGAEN
The assay can be described thus: coimmunoprecipitation (quantified western blot). The settings on record: chain shown with the change; serum-starved cells; parent: est. 1.0; read off a plot. In general terms: Immunoblotting shows a protein as a band on a membrane.

B1: IRSp53-FLAG (wild type), natively phosphorylated, Q9UQB8-4 S452A; S453A; S454A; T455A (protein)
chain: MSLSRSEEMHRLTENVYKTIMEQFNPSLRNFIAMGKNYEKALAGVTYAAKGYFDALVKMGELASESQGSKELGDVLFQMAEVHRQIQNQLEEMLKSFHNELLTQLEQKVELDSRYLSAALKKYQTEQRSKGDALDKCQAELKKLRKKSQGSKNPQKYSDKELQYIDAISNKQGELENYVSDGYKTALTEERRRFCFLVEKQCAVAKNSAAYHSKGKELLAQKLPLWQQACADPSKIPERAVQLMQQVASNGATLPSALSASKSNLVISDPIPGAKPLPVPPELAPFVGRMSAQESTPIMNGVTGPDGEDYSPWADRKAAQPKSLSPPQSQSKLSDSYSNTLPVRKSVTPKNSYATTENKTLPRSSSMAAGLERNGRMRVKAIFSHAAGDNSTLLSFKEGDLITLLVPEARDGWHYGESEKTKMRGWFPFSYTRVLDSDGSDRLHMSLQQGKAAAAGNLLDKDDLAIPPPDYGAASRAFPAQTASGFKQRPYSVAVPAFSQGLDDYGARSMSSGSGTLVSTV
In the case of B1, the ratio to parent is 0.98.

B2: IRSp53-FLAG (wild type), natively phosphorylated, Q9UQB8-4 T360A (protein)
chain: B1 chain with T360A, A452S, A453S, A454S, A455T
For B2, the ratio to parent came to 0.12.

B3: IRSp53-FLAG (wild type), natively phosphorylated, Q9UQB8-4 T340A (protein)
chain: B1 chain with T340A, A452S, A453S, A454S, A455T
In the case of B3, the ratio to parent amounted to 0.1.

B4: IRSp53-FLAG (wild type), natively phosphorylated, Q9UQB8-4 S366A (protein)
chain: B1 chain with S366A, A452S, A453S, A454S, A455T
For the molecule B4, the ratio to parent was determined as 0.62.

B5: IRSp53-FLAG (wild type), natively phosphorylated, Q9UQB8-4 T340A; T360A (protein)
chain: MSLSRSEEMHRLTENVYKTIMEQFNPSLRNFIAMGKNYEKALAGVTYAAKGYFDALVKMGELASESQGSKELGDVLFQMAEVHRQIQNQLEEMLKSFHNELLTQLEQKVELDSRYLSAALKKYQTEQRSKGDALDKCQAELKKLRKKSQGSKNPQKYSDKELQYIDAISNKQGELENYVSDGYKTALTEERRRFCFLVEKQCAVAKNSAAYHSKGKELLAQKLPLWQQACADPSKIPERAVQLMQQVASNGATLPSALSASKSNLVISDPIPGAKPLPVPPELAPFVGRMSAQESTPIMNGVTGPDGEDYSPWADRKAAQPKSLSPPQSQSKLSDSYSNALPVRKSVTPKNSYATTENKALPRSSSMAAGLERNGRMRVKAIFSHAAGDNSTLLSFKEGDLITLLVPEARDGWHYGESEKTKMRGWFPFSYTRVLDSDGSDRLHMSLQQGKSSSTGNLLDKDDLAIPPPDYGAASRAFPAQTASGFKQRPYSVAVPAFSQGLDDYGARSMSRNPFAHVQLKPTVTNDRCDLSAQGPEGREHGDGSARTLAGR
As for B5, the ratio to parent turned out to be 0.05.
